Measurements taken from patent US20200038493.

B1: recombinant SspH1 of Salmonella enterica serovar Typhimurium with C-terminal 6x His-tag (protein)
chain: MFNIRNTQPSVSMQAIAGAAAPEASPEEIVWEKIQVFFPQENYEEAQQCLAELCHPARGMLPDHISSQFARLKALTFPAWEENIQCNRDGINQFCILDAGSKEILSITLDDAGNYTVNCQGYSEAHDFIMDTEPGEECTEFAEGASGTSLRPATTVSQKAAEYDAVWSKWERDAPAGESPGRAAVVQEMRDCLNNGNPVLNVGASGLTTLPDRLPPHITTLVIPDNNLTSLPELPEGLRELEVSGNLQLTSLPSLPQGLQKLWAYNNWLASLPTLPPGLGDLAVSNNQLTSLPEMPPALRELRVSGNNLTSLPALPSGLQKLWAYNNRLTSLPEMSPGLQELDVSHNQLTRLPQSLTGLSSAARVYLDGNPLSVRTLQALRDIIGHSGIRIHFDMAGPSVPREARALHLAVADWLTSAREGEAAQADRWQAFGLEDNAAAFSLVLDRLRETENFKKDAGFKAQISSWLTQLAEDAALRAKTFAMATEATSTCEDRVTHALHQMNNVQLVHNAEKGEYDNNLQGLVSTGREMFRLATLEQIAREKAGTLALVDDVEVYLAFQNKLKESLELTSVTSEMRFFDVSGVTVSDLQAAELQVKTAENSGFSKWILQWGPLHSVLERKVPERFNALREKQISDYEDTYRKLYDEVLKSSGLVDDTDAERTIGVSAMDSAKKEFLDGLRALVDEVLGSYLTARWRLNHHHHHH
B2: recombinant SlrP from Salmonella enterica serovar Typhimurium (protein)
chain: MFNITNIQSTARHQSISNEASTEVPLKEEIWNKISAFFSSEHQVEAQNCIAYLCHPPETASPEEIKSKFECLRMLAFPAYADNIQYSRGGADQYCILSENSQEILSIVFNTEGYTVEGGGKSVTYTRVTESEQASSASGSKDAVNYELIWSEWVKEAPAKEAANREEAVQRMRDCLKNNKTELRLKILGLTTIPAYIPEQITTLILDNNELKSLPENLQGNIKTLYANSNQLTSIPATLPDTIQEMELSINRITELPERLPSALQSLDLFHNKISCLPENLPEELRYLSVYDNSIRTLPAHLPSEITHLNVQSNSLTALPETLPPGLKTLEAGENALTSLPASLPPELQVLDVSKNQITVLPETLPPTITTLDVSRNALTNLPENLPAALQIMQASRNNLVRLPESLPHFRGEGPQPTRIIVEYNPFSERTIQNMQRLMSSVDYQGPRVLFAMGDFSIVRVTRPLHQAVQGWLTSLEEEDVNQWRAFEAEANAAAFSGFLDYLGDTQNTRHPDFKEQVSAWLMRLAEDSALRETVFIIAMNATISCEDRVTLAYHQMQEATLVHDAERGAFDSHLAELIMAGREIFRLEQIESLAREKVKRLFFIDEVEVFLGFQNQLRESLSLTTMTRDMRFYNVSGITESDLDEAEIRIKMAENRDFHKWFALWGPWHKVLERIAPEEWREMMAKRDECIETDEYQSRVNAELEDLRIADDSDAERTTEVQMDAERAIGIKIMEEINQTLFTEIMENILLKKEVSSLMSAYWRHHHHHH
B3: recombinant IpaH9.8 from Shigella flexneri (protein)
chain: MLPINNNFSLPQNSFYNTISGTYADYFSAWDKWEKQALPGEERDEAVSRLKECLINNSDELRLDRLNLSSLPDNLPAQITLLNVSYNQLTNLPELPVTLKKLYSASNKLSELPVLPPALESLQVQHNELENLPALPDSLLTMNISYNEIVSLPSLPQALKNLRATRNFLTELPAFSEGNNPVVREYFFDRNQISHIPESILNLRNECSIHISDNPLSSHALQALQRLTSSPDYHGPRIYFSMSDGQQNTLHRPLADAVTAWFPENKQSDVSQIWHAFEHEEHANTFSAFLDRLSDTVSARNTSGFREQVAAWLEKLSASAELRQQSFAVAADATESCEDRVALTWNNLRKTLLVHQASEGLFDNDTGALLSLGREMFRLEILEDIARDKVRTLHFVDEIEVYLAFQTMLAEKLQLSTAVKEMRFYGVSGVTANDLRTAEAMVRSREENEFTDWFSLWGPWHAVLKRTEADRWAQAEEQKYEMLENEYPQRVADRLKASGLSGDADAEREAGAQVMRETEQQIYRQLTDEVLALRLFENGSQLHHSHHHHHH
B4: recombinant IpaH1.4 from Shigella flexneri (protein)
chain: MIKSTNIQAIGSGIMHQINNVYSLTPLSLPMELTPSCNEFYLKTWSEWEKNGTPGEQRNIAFNRLKICLQNQEAELNLSELDLKTLPDLPPQITTLEIRKNLLTHLPDLPPMLKVIHAQFNQLESLPALPETLEELNAGDNKIKELPFLPENLTHLRVHNNRLHILPLLPPELKLLVVSGNRLDSIPPFPDKLEGLALANNFIEQLPELPFSMNRAVLMNNNLTTLPESVLRLAQNAFVNVAGNPLSGHTMRTLQQITTGPDYSGPRIFFSMGNSATISAPEHSLADAVTAWFPENKQSDVSQIWHAFEHEEHANTFSAFLDRLSDTVSARNTSGFREQVAAWLEKLSASAELRQQSFAVAADATESCEDRVALTWNNLRKTLLVHQASEGLFDNDTGALLSLGREMFRLEILEDIARDKVRTLHFVDEIEVYLAFQTMLAEKLQLSTAVKEMRFYGVSGVTANDLRTAEAMVRSREENEFTDWFSLWGPWHAVLKRTEADRWAQAEEQKYEMLENEYSQRVADRLKASGLSGDADAEREAGAQVMRETEQQIYRQLTDEVLALRLSENGSNHIAHHHHHH
B5: recombinant IpaH4.5 from Shigella flexneri (protein)
chain: MKPINNHSFFRSLCGLSCISRLSVEEQCTRDYHRIWDDWAREGTTTENRIQAVRLLKICLDTREPVLNLSLLKLRSLPPLPLHIRELNISNNELISLPENSPLLTELHVNGNNLNILPTLPSQLIKLNISFNRNLSCLPSLPPYLQSLSARFNSLETLPELPSTLTILRIEGNRLTVLPELPHRLQELFVSGNRLQELPEFPQSLKYLKVGENQLRRLSRLPQELLALDVSNNLLTSLPENIITLPICTNVNISGNPLSTHVLQSLQRLTSSPDYHGPQIYFSMSDGQQNTLHRPLADAVTAWFPENKQSDVSQIWHAFEHEEHANTFSAFLDRLSDTVSARNTSGFREQVAAWLEKLSASAELRQQSFAVAADATESCEDRVALTWNNLRKTLLVHQASEGLFDNDTGALLSLGREMFRLEILEDIARDKVRTLHFVDEIEVYLAFQTMLAEKLQLSTAVKEMRFYGVSGVTANDLRTAEAMVRSREENEFTDWFSLWGPWHAVLKRTEADRWAQAEEQKYEMLENEYSQRVADRLKASGLSGDADAEREAGAQVMRETEQQIYRQLTDEVLAHHHHHH
B6: recombinant IpaH2.5 from Shigella flexneri (protein)
chain: MIKSTNIQVIGSGIMHQINNIHSLTLFSLPVSLSPSCNEYYLKVWSEWEKNGTPGEQRNIAFNRLKICLQNQEAELNLSELDLKTLPDLPPQITTLEIRKNLLTHLPDLPPMLKVIHAQFNQLESLPALPETLEELNAGDNKIKELPFLPENLTHLRVHNNRLHILPLLPPELKLLVVSGNRLDSIPPFPDKLEGLALANNFIEQLPELPFSMNRAVLMNNNLTTLPESVLRLAQNAFVNVAGNPLSGHTMRTLQQITTGPDYSGPRIFFSMGNSATISAPEHSLADAVTAWFPENKQSDVSQIWHAFEHEEHANTFSAFLDRLSDTVSARNTSGFREQVAAWLEKLSASAELRQQSFAVAADATESCEDRVALTWNNLRKTLLVHQASEGLFDNDTGALLSLGREMFRLEILEDIARDKVRTLHFVDEIEVYLAFQTMLAEKLQLSTAVKEMRFYGVSGVTANDLRTAEAMVRSREENEFTDWFSLWGPWHAVLKRTEADRWAQAEEQKYEMLENEYSQRVADRLKASGLSGDADAEREAGAQVMRETEQQIYRQLTDEVLAHHHHHH
B7: recombinant IpaH7.8 from Shigella flexneri (protein)
chain: MFSVNNTHSSVSCSPSINSNSTSNEHYLRILTEWEKNSSPGEERGIAFNRLSQCFQNQEAVLNLSDLNLTSLPELPKHISALIVENNKLTSLPKLPAFLKELNADNNRLSVIPELPESLTTLSVRSNQLENLPVLPNHLTSLFVENNRLYNLPALPEKLKFLHVYYNRLTTLPDLPDKLEILCAQRNNLVTFPQFSDRNNIRQKEYYFHFNQITTLPESFSQLDSSYRINISGNPLSTRVLQSLQRLTSSPDYHGPQIYFSMSDGQQNTLHRPLADAVTAWFPENKQSDVSQIWHAFEHEEHANTFSAFLDRLSDTVSARNTSGFREQVAAWLEKLSASAELRQQSFAVAADATESCEDRVALTWNNLRKTLLVHQASEGLFDNDTGALLSLGREMFRLEILEDIARDKVRTLHFVDEIEVYLAFQTMLAEKLQLSTAVKEMRFYGVSGVTANDLRTAEAMVRSREENEFTDWFSLWGPWHAVLKRTEADRWAQAEEQKYEMLENEYSQRVADRLKASGLSGDADAEREAGAQVMRETEQQIYRQLTDEVLALRLSENGSRLHHSHHHHHH

How the values were obtained:
[1] = molecular target: UbcH5b (E2 ubiquitin-conjugating enzyme), P62837
Chain of UbcH5b (E2 ubiquitin-conjugating enzyme), P62837 (P62837 whole entry, looked up): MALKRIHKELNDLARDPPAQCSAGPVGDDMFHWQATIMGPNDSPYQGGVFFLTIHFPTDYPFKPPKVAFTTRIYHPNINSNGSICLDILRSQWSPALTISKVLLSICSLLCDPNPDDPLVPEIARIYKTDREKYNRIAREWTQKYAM

Chain of GST-tagged PKN1, Q16512 (Q16512 whole entry, looked up): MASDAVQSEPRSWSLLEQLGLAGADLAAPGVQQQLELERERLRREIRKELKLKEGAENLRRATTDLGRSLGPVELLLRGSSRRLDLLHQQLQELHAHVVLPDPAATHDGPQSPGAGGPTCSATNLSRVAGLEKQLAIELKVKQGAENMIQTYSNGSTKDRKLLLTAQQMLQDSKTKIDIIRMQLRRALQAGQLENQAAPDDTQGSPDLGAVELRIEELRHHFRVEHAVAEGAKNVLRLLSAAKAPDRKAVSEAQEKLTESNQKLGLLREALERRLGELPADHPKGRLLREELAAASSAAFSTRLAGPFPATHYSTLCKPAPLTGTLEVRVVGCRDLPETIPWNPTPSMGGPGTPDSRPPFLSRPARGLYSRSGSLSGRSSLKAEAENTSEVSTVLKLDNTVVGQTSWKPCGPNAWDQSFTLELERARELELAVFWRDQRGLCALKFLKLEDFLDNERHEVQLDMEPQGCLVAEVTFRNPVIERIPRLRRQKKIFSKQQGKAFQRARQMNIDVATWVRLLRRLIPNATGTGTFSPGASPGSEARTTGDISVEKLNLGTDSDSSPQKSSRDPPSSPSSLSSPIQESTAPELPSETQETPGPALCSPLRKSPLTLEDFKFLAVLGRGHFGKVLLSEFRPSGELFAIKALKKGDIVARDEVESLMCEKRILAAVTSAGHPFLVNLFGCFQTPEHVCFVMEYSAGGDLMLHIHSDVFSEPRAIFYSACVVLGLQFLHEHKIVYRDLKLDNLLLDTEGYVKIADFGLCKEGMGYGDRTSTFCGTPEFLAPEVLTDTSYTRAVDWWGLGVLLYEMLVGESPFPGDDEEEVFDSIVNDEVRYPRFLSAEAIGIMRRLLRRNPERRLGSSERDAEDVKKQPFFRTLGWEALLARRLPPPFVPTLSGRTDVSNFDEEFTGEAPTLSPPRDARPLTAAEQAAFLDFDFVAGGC

Protein | in vitro ubiquitination assay, anti-HA western blot [1] | also measured
B1 | – | in vitro ubiquitination assay, anti-PKN1 immunoblot (GST-tagged PKN1, Q16512): When the reaction was performed in the presence of SspH1 and PKN1 in vitro, anti-PKN1 antibodies detected an additional species migrating at a size >148 kDa; in vitro ubiquitination assay, immunoblots with anti-HA, anti-PKN1 and anti-His antibodies (GST-tagged PKN1, Q16512): recombinant SspH1 ubiquitinates PKN1 in vitro; in vitro ubiquitination assay, western blot [1]: recombinant SspH1 has the ability to remove ubiquitin from ubiquitinated UbcH5B, to autoubiquitinate, and to polyubiquitinate Ha-tagged ubiquitin
B2 | have the ability to remove ubiquitin from ubiquitinated UbcH5b in order to form poly-ubiquitin chains of the HA-tagged ubiquitin | –
B3 | have the ability to remove ubiquitin from ubiquitinated UbcH5b in order to form poly-ubiquitin chains of the HA-tagged ubiquitin | –
B4 | have the ability to remove ubiquitin from ubiquitinated UbcH5b in order to form poly-ubiquitin chains of the HA-tagged ubiquitin | –
B5 | have the ability to remove ubiquitin from ubiquitinated UbcH5b in order to form poly-ubiquitin chains of the HA-tagged ubiquitin | –
B6 | have the ability to remove ubiquitin from ubiquitinated UbcH5b in order to form poly-ubiquitin chains of the HA-tagged ubiquitin | –
B7 | have the ability to remove ubiquitin from ubiquitinated UbcH5b in order to form poly-ubiquitin chains of the HA-tagged ubiquitin | –
